The text below walks through data of US20250289904A1 (UMC UTRECHT HOLDING B V, published 2025).

Assay [1] addresses plasmin-cleaved von Willebrand factor (cVWF) (human) (UniProt P04275). Kind of assay: capture ELISA, VHH coated on plate, concentration series of VWF and cVWF in buffer, detection with biotinylated VHH B9; reference: intact VWF. Background: In an ELISA, binding on a coated surface is turned into a signal by an enzyme label.
For assay [2] the target is unchanged. Kind of assay: capture ELISA, cVWF spiked in citrated normal pooled plasma, detection with biotinylated VHH B9.
The target is the same in assay [3]. Kind of assay: capture ELISA, cVWF in buffer, detection with biotinylated VHH B9.
Assay [4] concerns the target T1, intact von Willebrand factor (VWF) (human, UniProt P04275 764-2813).
T1 construct: also called uncleaved VWF; purified VWF
Nature of the assay: capture ELISA, VHH coated on plate, concentration series of VWF in buffer, detection with biotinylated VHH B9 and streptavidin-poly HRP.

T1 sequence (P04275 764-2813 limits assumed): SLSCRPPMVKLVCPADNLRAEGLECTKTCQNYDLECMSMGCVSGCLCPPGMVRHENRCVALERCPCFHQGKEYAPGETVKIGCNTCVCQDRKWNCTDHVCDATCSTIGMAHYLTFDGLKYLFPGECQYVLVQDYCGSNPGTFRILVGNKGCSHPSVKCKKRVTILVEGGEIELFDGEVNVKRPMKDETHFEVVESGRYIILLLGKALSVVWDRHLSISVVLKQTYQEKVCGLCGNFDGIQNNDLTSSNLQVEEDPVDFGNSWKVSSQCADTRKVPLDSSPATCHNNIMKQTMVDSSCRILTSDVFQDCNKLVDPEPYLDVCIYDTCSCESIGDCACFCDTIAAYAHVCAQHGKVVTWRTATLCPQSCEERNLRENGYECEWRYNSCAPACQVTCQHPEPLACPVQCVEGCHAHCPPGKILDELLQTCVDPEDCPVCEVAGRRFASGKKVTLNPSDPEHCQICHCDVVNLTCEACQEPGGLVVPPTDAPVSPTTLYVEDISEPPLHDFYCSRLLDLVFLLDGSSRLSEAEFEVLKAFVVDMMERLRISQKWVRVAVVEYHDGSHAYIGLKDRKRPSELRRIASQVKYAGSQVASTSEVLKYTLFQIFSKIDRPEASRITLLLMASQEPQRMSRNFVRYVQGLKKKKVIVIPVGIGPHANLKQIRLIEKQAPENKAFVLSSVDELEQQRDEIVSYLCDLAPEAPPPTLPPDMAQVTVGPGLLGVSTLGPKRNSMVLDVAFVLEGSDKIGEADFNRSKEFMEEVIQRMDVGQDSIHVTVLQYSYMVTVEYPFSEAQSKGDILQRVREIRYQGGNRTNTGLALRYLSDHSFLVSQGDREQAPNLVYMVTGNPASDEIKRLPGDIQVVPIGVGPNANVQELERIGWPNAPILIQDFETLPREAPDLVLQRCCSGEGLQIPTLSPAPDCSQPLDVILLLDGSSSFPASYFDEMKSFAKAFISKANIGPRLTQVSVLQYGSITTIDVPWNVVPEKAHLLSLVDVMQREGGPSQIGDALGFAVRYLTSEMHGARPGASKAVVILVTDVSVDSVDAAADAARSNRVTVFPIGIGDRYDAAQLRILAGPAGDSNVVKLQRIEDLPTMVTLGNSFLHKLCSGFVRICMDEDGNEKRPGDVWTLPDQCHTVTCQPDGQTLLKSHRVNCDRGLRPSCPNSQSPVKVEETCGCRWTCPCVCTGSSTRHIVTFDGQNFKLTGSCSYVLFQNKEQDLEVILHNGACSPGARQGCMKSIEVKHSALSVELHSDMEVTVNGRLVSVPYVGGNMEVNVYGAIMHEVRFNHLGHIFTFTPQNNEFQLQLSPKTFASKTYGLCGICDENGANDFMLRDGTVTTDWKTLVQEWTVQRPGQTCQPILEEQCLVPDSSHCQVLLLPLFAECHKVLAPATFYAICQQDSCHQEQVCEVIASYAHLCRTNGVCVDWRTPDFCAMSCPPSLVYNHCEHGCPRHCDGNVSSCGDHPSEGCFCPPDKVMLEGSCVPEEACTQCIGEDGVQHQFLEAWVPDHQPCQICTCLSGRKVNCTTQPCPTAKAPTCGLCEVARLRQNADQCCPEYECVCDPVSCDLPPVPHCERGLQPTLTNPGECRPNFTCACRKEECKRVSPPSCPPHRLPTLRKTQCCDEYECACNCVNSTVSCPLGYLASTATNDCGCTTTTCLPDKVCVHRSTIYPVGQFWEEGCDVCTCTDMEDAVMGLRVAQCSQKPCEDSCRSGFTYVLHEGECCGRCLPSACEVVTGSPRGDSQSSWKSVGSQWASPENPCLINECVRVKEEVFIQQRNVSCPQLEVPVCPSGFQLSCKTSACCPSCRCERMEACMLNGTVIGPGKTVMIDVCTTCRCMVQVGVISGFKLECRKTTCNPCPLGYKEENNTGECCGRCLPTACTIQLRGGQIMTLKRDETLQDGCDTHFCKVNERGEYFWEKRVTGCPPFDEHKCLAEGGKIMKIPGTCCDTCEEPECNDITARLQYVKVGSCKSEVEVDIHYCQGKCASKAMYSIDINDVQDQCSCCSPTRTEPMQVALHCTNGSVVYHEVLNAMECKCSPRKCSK

B1: cVWF capture VHH #1 (F5) (VHH, not shown: small tags and cut ends)
VHH: EVQLVESGGGLVQAGGSLRLSCAASGQTDSTYTGGWFRQAPGKEREFVATFSWNSGRTHFADSVKGRFTISRDNAKSTVFLQMNSLKPEDTAVYYCAAHRTSLTDYSFRYWGQGTHVTVSS
In assay [1], B1 came in with a fold discrimination between VWF and cVWF of 144 fold. For the same molecule, the sensitivity of the cVWF ELISA in assay [2] and in assay [3] was 8 ng/mL throughout.

B2: cVWF capture VHH #2 (G5) (VHH, not shown: small tags and cut ends)
VHH: EVQLVESGGGLVQAGGSLRLSCAVSGRTVSNSMAWFRQAPEKEREFVAAISWNSGRTDYADSVKGRFTISRDNAKNTVDLQMNSLKAEDTAVYYCAVHRVRIEPKEYLYWGQGTQVTVSS
On to B2, for which the sensitivity of the cVWF ELISA in assay [2] and in assay [3] was 4 ng/mL throughout.

B3: negative control VHH-R2 (VHH)
VHH: QVQLQESGGGLVQAGGSLRLSCAASGRATSGHGHYGMGWFRQVPGKEREFVAAIRWSGKETWYKDSVKGRFTISRDNAKTTVYLQMNSLKPEDTAVYYCAARPVRVDDISLPVGFDYWGQGTQVTVSS
notes: Production and tags of this control are not described
For the molecule B3, the binding result in assay [4] is recorded as “no binding”.
